From US20230265179A1 (TWIST BIOSCIENCE, published 2023)
Changes are numbered by the printed parent chain.

T1: IL1RL2 over-expressed on Expi293 cells (UniProt Q9HB29 20-575, limits assumed)
T1 construct: whole, on cells; Target of the flow cytometry assay; MFI ratio is over-expressing cells over parent cells
T1 sequence (looked up): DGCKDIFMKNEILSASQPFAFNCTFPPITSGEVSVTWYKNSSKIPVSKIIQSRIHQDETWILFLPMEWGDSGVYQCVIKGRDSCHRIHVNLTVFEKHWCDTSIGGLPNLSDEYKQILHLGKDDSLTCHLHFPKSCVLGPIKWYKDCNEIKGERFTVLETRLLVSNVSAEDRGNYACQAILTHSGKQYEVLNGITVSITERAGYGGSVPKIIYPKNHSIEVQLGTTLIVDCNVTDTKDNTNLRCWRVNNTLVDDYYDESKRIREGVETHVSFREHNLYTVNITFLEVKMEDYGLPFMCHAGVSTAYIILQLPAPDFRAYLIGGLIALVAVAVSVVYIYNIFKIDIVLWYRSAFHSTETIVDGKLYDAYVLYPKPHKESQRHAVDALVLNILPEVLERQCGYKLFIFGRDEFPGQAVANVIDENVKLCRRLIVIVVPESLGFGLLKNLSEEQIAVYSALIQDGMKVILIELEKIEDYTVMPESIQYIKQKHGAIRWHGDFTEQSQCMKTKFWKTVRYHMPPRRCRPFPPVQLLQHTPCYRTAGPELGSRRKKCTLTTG

B1: TSLP-10 (VHH)
VHH: EVQLVESGGGLVQPGGSLRLSCAASGFTLDDYVMGWFRQAPGKEREGVATIAGGGTYYADSVKGRFTISADNSKNTAYLQMNSLKPEDTAVYYCASSGSYYPGHFEWGQGTLVTVSS
notes: VHH-Fc (IgG2 Fc); not shown: IgG2 Fc of the VHH-Fc format
B2: TSLP-17 (VHH)
VHH: EVQLVESGGGLVQPGGSLRLSCAASGTTFEIYPMGWFRQAPGKEREFVAAIHWNSGITYYADSVKGRFTISADNSKNTAYLQMNSLKPEDTAVYYCARDVFYFDSSGYSLWGQGTLVTVSS
notes: as for B1
B3: IL1RL2-187 (antibody, V domains shown)
VH: EVQLLESGGGLVQPGGSLRLSCAASGFTLSSYAMSWVRQAPGKGLEWVSSISSSGGYTGYADSVKGRFTISRDNSKNTLYLQMNSLRAEDTAVYYCAKSFSFFDYWGQGTLVTVSS
VL: DIQMTQSPSSLSASVGDRVTITCRASQSISSYVNWYQQKPGKAPKLLIYGSSYLQSGVPSRFSGSGSGTDFTLTISSLQPEDFATYYCQQNNNWPTTFGQGTKVEIK
notes: IgG2
B4: IL1RL2-300 (antibody, V domains shown)
VH: EVQLLESGGGLVQPGGSLRLSCAASGFTFSGYAMNWVRQAPGKGLEWVSTISGSGVSTYYADSVKGRFTISRDNSKNTLYLQMNSLRAEDTAVYYCAREQHLVEGDFDNWGQGTLVTVSS
VL: B3 VL with A25T, V33L, G50A, S51A, Y53S, N91S, N92Y, W94I, T96Y
notes: IgG2
B5: IL1RL2-285 (antibody, V domains shown)
VH: EVQLLESGGGLVQPGGSLRLSCAASGFTFSNFAMSWVRQAPGKGLEWVSTISGSGGSTSYADSVKGRFTISRDNSKNTLYLQMNSLRAEDTAVYYCAREKRSSGWYPHFDYWGQGTLVTVSS
VL: DIQMTQSPSSLSASVGDRVTITCRASQTIGTYLNWYQQKPGKAPKLLIYGGSRLQSGVPSRFSGSGSGTDFTLTISSLQPEDFATYYCQQSYSTPYTFGGGTKVEIK
notes: IgG2
B6: IL1RL2-298 (antibody, V domains shown)
VH: B5 VH with S30P, N31S, F32Y, S35A, T50A, G56S, T58P, S59Y
VL: DIQMTQSPSSLSASVGDRVTITCRASRSIDTYLNWYQQKPGKAPKLLIYGGSRLQSGVPSRFSGSGSGTDFTLTISSLQPEDFATYYCQQSYSTPPVTFGGGTKVEIK
notes: IgG2
B7: IL1RL2-299 (antibody, V domains shown)
VH: EVQLLESGGGLVQPGGSLRLSCAASGFIFSRYAMSWVRQAPGKGLEWVSAISESGGNTYYADSVKGRFTISRDNSKNTLYLQMNSLRAEDTAVYYCARQRYPGGSGSYADYWGQGTLVTVSS
VL: B5 VL with T28S, G30S, Y32D, G51V, R53S, Y92H, Y96F
notes: IgG2
B8: TSLP-16 (VHH)
VHH: EVQLVESGGGLVQPGGSLRLSCAASGFSLDDYAMGWFRQAPGKEREGVATIAGGYTYYADSVKGRFTISADNSKNTAYLQMNSLKPEDTAVYYCAAFDGYTGSDWGQGTLVTVSS
notes: not shown: IgG2 Fc of the VHH-Fc format
B9: IL1RL2-180 (antibody, V domains shown)
VH: EVQLLESGGGLVQPGGSLRLSCAASGFTFSDYDMSWVRQAPGKGLEWVSAIEGAGSDTYYADSVKGRFTISRDNSKNTLYLQMNSLRAEDTAVYYCARLAPEFDYWGQGTLVTVSS
VL: DIQMTQSPSSLSASVGDRVTITCRASQSISSYVNWYQQKPGKAPKLLIYQNDKRPSGVPSRFSGSGSGTDFTLTISSLQPEDFATYYCQPSFYFPYAFGQGTKVEIK
notes: IgG2
B10: TSLP-40 (VHH)
VHH: EVQLVESGGGLVQPGGSLRLSCAASGLTFSRYAMGWFRQAPGKEREFVSAIFSDGSTYYADSVKGRFTISADNSKNTAYLQMNSLKPEDTAVYYCARGPNWFDPWGQGTLVTVSS
notes: as for B1
B11: TSLP-13 (VHH)
VHH: EVQLVESGGGLVQPGGSLRLSCAASGFTFDDNDMGWFRQAPGKEREFVGAISWSGNTTYYKYYADSVKGRFTISADNSKNTAYLQMNSLKPEDTAVYYCSNQYGWGQGTLVTVSS
notes: as for B1
B12: TSLP-5 (VHH)
VHH: EVQLVESGGGLVQPGGSLRLSCAASGVTLDTDAMGWFRQAPGKEREFVAWINNRGTTDYADSVKGRFTISADNSKNTAYLQMNSLKPEDTAVYYCARVSQWLLGGPANWGQGTLVTVSS
notes: as for B1
B13: IL1RL2-153 (antibody, V domains shown)
VH: EVQLLESGGGLVQPGGSLRLSCAASGFIFQWYDMGWVRQAPGKGLEWVSSIRGSSSSTYYADSVKGRFTISRDNSKNTLYLQMNSLRAEDTAVYYCARDLGDYWGQGTLVTVSS
VL: DIQMTQSPSSLSASVGDRVTITCRASQNIRSYLNWYQQKPGKAPKLLIYDDIDRPSGVPSRFSGSGSGTDFTLTISSLQPEDFATYYCQTWGPGIRVFGQGTKVEIK
notes: IgG2
B14: TSLP-121 (antibody, V domains shown)
VH: QVQLVQSGAEVKKPGSSVKVSCKASGGSFSSYAISWVRQAPGQGLEWMGGIIPMNYAQKFQGRVTITADESTSTAYMELSSLRSEDTAVYYCARQLAAALVYWGQGTLVTVSS
VL: EIVLTQSPGTLSLSPGERATLSCRASQNVNTRYLAWYQQKPGQAPRLLIYAASSRATGIPDRFSGSGSGTDFTLTISSLEPEDFAVYYCQQYESSPYNFGQGTKVEIK
B15: TSLP-9 (VHH)
VHH: EVQLVESGGGLVQPGGSLRLSCAASGPMSSSAVMGWFRQAPGKEREAVALGWSGGSTYYADSVKGRFTISADNSKNTAYLQMNSLKPEDTAVYYCAIHTSREIWGQGTLVTVSS
notes: as for B1
B16: IL1RL2-179 (antibody, V domains shown)
VH: EVQLLESGGGLVQPGGSLRLSCAASGFTFSPRRMSWVRQAPGKGLEWVSTIDDLGRHTYYADSVKGRFTISRDNSKNTLYLQMNSLRAEDTAVYYCAKLANSLLFDYWGQGTLVTVSS
VL: DIQMTQSPSSLSASVGDRVTITCRASENIYSNLAWYQQKPGKAPKLLIYAASDLESGVPSRFSGSGSGTDFTLTISSLQPEDFATYYCGATDLSPWSIVFDQGTKVEIK
notes: IgG2
B17: IL1RL2-165 (antibody, V domains shown)
VH: EVQLLESGGGLVQPGGSLRLSCAASGFTFSSAAMSWVRQAPGKGLEWVSAISGSGGNTYYADSVKGRFTISRDNSKNTLYLQMNSLRAEDTAVYYCARSYGGGFDYWGQGTLVTVSS
VL: DIQMTQSPSSLSASVGDRVTITCSGHNLGDKFASWYQQKPGKAPKLLIYSASNLESGVPSRFSGSGSGTDFTLTISSLQPEDFATYYCQSYASQGIHYVFGQGTKVEIK
notes: IgG2
B18: TSLP-2 (VHH)
VHH: EVQLVESGGGLVQPGGSLRLSCAASGLTFSTTVMGWFRQAPGKEREWVATIAGDGSTFYADSVKGRFTISADNSKNTAYLQMNSLKPEDTAVYYCADINEDWGQGTLVTVSS
notes: as for B1

Tests used:
[1] = biological target: T2, TSLP (UniProt Q969D9 29-159); assay: SPR, Carterra LSA, antibody amine-coupled, 1:1 model
T2 construct: Soluble analyte of the SPR assay
Protocol: SPR experiments were performed on a Carterra LSA SPR biosensor equipped with a HC30M chip at 25° C. in HBS-TE. Antibodies were diluted to 10 μg/mL and amine-coupled to the sensor chip by EDC/NHS activation, followed by ethanolamine HCl quenching. Increasing concentrations of analyte were flowed over the sensor chip in HBS-TE with 0.5 mg/mL BSA with 5-minute association and 15-minute dissociation. Following each injection cycle the surface was regenerated with 2× 30-second injections of IgG elution buffer (Thermo). Data were analyzed in Carterra's Kinetics Tool software with 1:1 binding model.

[2] = biological target: T3, TSLP on over-expressing Expi293 cells (UniProt Q969D9 29-159, limits assumed); assay: flow cytometry titration on TSLP over-expressing Expi293 cells
T3 construct: whole, on cells; Target of the flow cytometry assay; also called cytokine over-expressing Expi293 cells
Protocol: (§1) All incubations and washes were in buffer containing PBS+1% BSA. MFI Ratio is defined by the mean fluorescence intensity (MFI) of the cytokine over-expressing Expi293 cell over the Expi293 parent cell. […] EC50 was calculated in GraphPad Prism.

[3] = biological target: T3, TSLP on over-expressing Expi293 cells; assay: flow cytometry, 100 nM, TSLP over-expressing Expi293 over parent cells
Protocol: as §1

[4] = biological target: T1, IL1RL2 over-expressed on Expi293 cells; assay: flow cytometry titration on over-expressing Expi293 cells
Protocol: as §1

[5] = biological target: T1, IL1RL2 over-expressed on Expi293 cells; assay: flow cytometry, over-expressing Expi293 vs parent cells, 100 nM antibody;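 note: ratio is mean fluorescence intensity on over-expressing Expi293 cells divided by that measured on parental Expi293 cells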
Protocol: as §1

Binder | Kd [1] | koff [1] | kon [1] | EC50 [2] | 100 nM (MFI Ratio) [3] | EC50 [4] | 100 nM FACS (MFI Ratio) [5]
B1 | 8.43 nM | 0.000805 s⁻¹ | 95500 M⁻¹ s⁻¹ | 1.4 nM | 67.8 MFI ratio | – | –
B2 | 11.2 nM | 0.00042 s⁻¹ | 37500 M⁻¹ s⁻¹ | 0.12 nM | 154 MFI ratio | – | –
B3 | – | – | – | – | – | 2.26 nM | 45
B4 | – | – | – | – | – | 1.57 nM | 23.9
B5 | – | – | – | – | – | 618 nM | 214
B6 | – | – | – | – | – | 100 nM | 49.6
B7 | – | – | – | – | – | 2.25 nM | 19.2
B8 | 11.9 nM | 0.00143 s⁻¹ | 120000 M⁻¹ s⁻¹ | 0.58 nM | 10 MFI ratio | – | –
B9 | – | – | – | – | – | 15.2 nM | 21.5
B10 | 19.3 nM | 0.000493 s⁻¹ | 25600 M⁻¹ s⁻¹ | 0.14 nM | 288 MFI ratio | – | –
B11 | 41.3 nM | 0.0013 s⁻¹ | 31600 M⁻¹ s⁻¹ | 0.37 nM | 120 MFI ratio | – | –
B12 | 24.5 nM | 0.000759 s⁻¹ | 31000 M⁻¹ s⁻¹ | 0.73 nM | 149 MFI ratio | – | –
B13 | – | – | – | – | – | 445 nM | 350
B14 | 2.96 nM | 0.00175 s⁻¹ | 589000 M⁻¹ s⁻¹ | 1.35 nM | 37.5 MFI ratio | – | –
B15 | 31 nM | 0.00151 s⁻¹ | 48600 M⁻¹ s⁻¹ | 0.73 nM | 8.6 MFI ratio | – | –
B16 | – | – | – | – | – | 27.5 nM | 17.7
B17 | – | – | – | – | – | 34.5 nM | 707
B18 | 6.49 nM | 0.0018 s⁻¹ | 278000 M⁻¹ s⁻¹ | 0.43 nM | 218 MFI ratio | – | –
